This is an account of results in paper PMC11403483 (The Journal of Biological Chemistry, 2024).

Usually Kd stands for the concentration at which binding is half-saturated. In general, koff refers to the first-order rate constant of dissociation. One may read the kon as the rate constant with which the complex forms. A low value points to slower complex formation.

For experiment [1], the target named is recombinant PSG1 (pregnancy-specific glycoprotein 1) (human, UniProt P11464 35-419, complex N-linked glycans). The experiment in a line: SPR.
The next experiment deals with native PSG1 (human (endogenous in serum of pregnant …, UniProt P11464 35-419)). The experiment is described as follows: SPR.
Sequence of native PSG1 (human (P11464 35-419): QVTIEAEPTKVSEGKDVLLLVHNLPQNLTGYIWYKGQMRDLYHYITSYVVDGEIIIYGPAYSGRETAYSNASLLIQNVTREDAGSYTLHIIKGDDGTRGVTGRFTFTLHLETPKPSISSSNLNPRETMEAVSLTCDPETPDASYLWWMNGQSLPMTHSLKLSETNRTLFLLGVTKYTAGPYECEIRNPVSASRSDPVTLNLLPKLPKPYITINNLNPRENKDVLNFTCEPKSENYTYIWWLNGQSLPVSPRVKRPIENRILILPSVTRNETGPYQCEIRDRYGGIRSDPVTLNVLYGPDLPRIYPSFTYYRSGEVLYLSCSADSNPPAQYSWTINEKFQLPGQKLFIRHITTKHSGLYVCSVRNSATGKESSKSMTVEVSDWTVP

Sequence of recombinant PSG1 (pregnancy-specific glycoprotein 1) (P11464 35-419): as above

B1: recombinant human galectin 9 (natural protein, UniProt O00182-2 1-323, looked up)
chain: MAFSGSQAPYLSPAVPFSGTIQGGLQDGLQITVNGTVLSSSGTRFAVNFQTGFSGNDIAFHFNPRFEDGGYVVCNTRQNGSWGPEERKTHMPFQKGMPFDLCFLVQSSDFKVMVNGILFVQYFHRVPFHRVDTISVNGSVQLSYISFQPPGVWPANPAPITQTVIHTVQSAPGQMFSTPAIPPMMYPHPAYPMPFITTILGGLYPSKSILLSGTVLPSAQRFHINLCSGNHIAFHLNPRFDENAVVRNTQIDNSWGSEERSLPRKMPFVRGQSFSVWILCEAHCLKVAVDGQHLFEYYHRLRNLPTINRLEVGGDIQLTHVQT
On to B1, for which, in experiment [1], the Kd stood at 21.6 nM and the koff was found to be 0.00156 s⁻¹. In the experiment with native PSG1, this molecule came in with a Kd of 40.3 nM, a koff of 0.0016 s⁻¹ and a kon of 39000 M⁻¹ s⁻¹.
